Data taken from patent US20130231265A1.

How the values were obtained:
[1] = system: T1, Src family artificial substrate peptide A, GGEEDEDIYEELDEPGGKbiotinGG
T1 sequence: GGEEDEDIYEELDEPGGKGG

[2] = system: T2, Abl artificial substrate peptide, GGDEDDNDEVAYQAPFEDGGKbiotinGG
T2 sequence: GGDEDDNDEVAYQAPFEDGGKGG

[3] = system: Syk biosensor peptide GGDEEDYEEPDEPGGKbiotinGG-betaNpa-RKKRRQRRR (SAStide biosensor)
[4] = target: Syk biosensor peptide …biotinGG-betaNpa-… (SAStide biosensor); test: cell-based or functional assay

Chain of Recombinant Abl kinase (Millipore) (P00519 whole entry): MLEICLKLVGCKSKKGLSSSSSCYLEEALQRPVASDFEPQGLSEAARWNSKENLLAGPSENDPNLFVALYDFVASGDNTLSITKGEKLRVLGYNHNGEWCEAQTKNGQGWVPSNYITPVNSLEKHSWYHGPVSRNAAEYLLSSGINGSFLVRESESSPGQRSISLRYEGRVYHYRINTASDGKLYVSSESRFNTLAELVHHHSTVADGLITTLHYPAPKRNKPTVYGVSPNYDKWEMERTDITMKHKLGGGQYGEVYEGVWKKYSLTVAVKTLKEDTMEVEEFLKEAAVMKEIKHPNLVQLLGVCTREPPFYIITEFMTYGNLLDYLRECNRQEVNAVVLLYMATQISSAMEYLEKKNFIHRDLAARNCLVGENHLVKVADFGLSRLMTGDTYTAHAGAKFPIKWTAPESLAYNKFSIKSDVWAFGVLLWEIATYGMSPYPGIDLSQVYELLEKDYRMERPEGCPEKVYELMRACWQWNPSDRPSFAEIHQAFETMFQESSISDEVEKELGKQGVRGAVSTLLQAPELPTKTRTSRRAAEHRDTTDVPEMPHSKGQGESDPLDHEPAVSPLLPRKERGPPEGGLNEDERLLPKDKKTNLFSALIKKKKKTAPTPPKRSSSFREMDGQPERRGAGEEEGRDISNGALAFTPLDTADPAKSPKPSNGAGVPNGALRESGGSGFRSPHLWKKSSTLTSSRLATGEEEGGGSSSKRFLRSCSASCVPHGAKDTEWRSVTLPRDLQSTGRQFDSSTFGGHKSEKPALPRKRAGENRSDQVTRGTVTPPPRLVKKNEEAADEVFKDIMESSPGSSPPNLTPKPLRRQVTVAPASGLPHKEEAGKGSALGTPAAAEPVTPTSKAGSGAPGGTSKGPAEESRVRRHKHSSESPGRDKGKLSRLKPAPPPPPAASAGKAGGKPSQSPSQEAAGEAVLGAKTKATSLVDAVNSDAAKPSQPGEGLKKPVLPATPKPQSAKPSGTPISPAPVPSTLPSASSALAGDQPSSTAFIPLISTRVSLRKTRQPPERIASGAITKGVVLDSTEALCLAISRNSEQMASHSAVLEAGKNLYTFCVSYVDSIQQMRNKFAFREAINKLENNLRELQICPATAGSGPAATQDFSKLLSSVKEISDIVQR

Row | Substance | in vitro kinase assay, terbium-sensitized luminescence, confirmed by ELISA-based Amplex Red chemifluorescent assay [2] | in vitro kinase assay, ELISA-based antiphosphotyrosine (4G10) chemifluorescence signal [3] | also measured
1 | Recombinant Hck | ABStide was specific for Abl against the Src-family kinase, Hck |  | in vitro kinase assay, time-resolved Tb3+ luminescence, percent phosphorylation against time [1]: These data show that enzymatic phosphorylation of SFAStideA can be detected using time-resolved Tb^3+ luminescence
2 | Recombinant Abl kinase (Millipore) | ABStide was specific for Abl against the Src-family kinase, Hck | none of which produced any significant signal for phosphopeptide | 
3 | Recombinant Src kinase (Millipore) |  | none of which produced any significant signal for phosphopeptide | 
4 | Recombinant Lyn kinase (Millipore) |  | none of which produced any significant signal for phosphopeptide | 
5 | EGFP-conjugated Syk (Syk-EGFP) isolated from DT40 chicken B cells stably expressing Syk-EGFP (enzyme) |  |  | phosphorylation of the biosensor peptide in Syk(-/-) DT40 cells reconstituted with Syk-EGFP, BCR stimulation by IgM, over unstimulated cells [4]: 2 fold; phosphorylation of the biosensor peptide in Syk(-/-) DT40 cells reconstituted with Syk-EGFP, H2O2 with or without BCR stimulation, over control [4]: 12 fold
6 | EGFP-conjugated Syk (Syk-EGFP) isolated from DT40 chicken B cells stably expressing Syk-EGFP |  |  | in vitro kinase assay, ELISA-based antiphosphotyrosine (4G10) chemifluorescence signal over time [3]: A substantial increase in signal over time was observed, demonstrating that SAStide was phosphorylated by Syk in vitro; in vitro kinase assay, time-resolved Tb3+ luminescence, percent phosphorylation against time [3]: These data show that enzymatic phosphorylation of SAStide can be detected using time-resolved Tb^3+ luminescence
